Key:
A431 (EGFR+) cells = test: Cytotoxicity assay of Doxisome with h6.3 BsAbs (3H-thymidine); assay type: cell-based, human; settings: compared with Doxisome alone
Procedure: A431 (EGFR^high) and Raji (CD19^high) cells (5000 cells/well) were seeded in 96-well plates overnight. Fifteen microgram per mL of h6.3Fab×EGFR or h6.3Fab×CD19 BsAbs were added to the cells for 30 min at 37° C. and followed by graded concentrations of free doxorubicin or PEGylated liposomal doxorubicin (Doxisome®, Taiwan Liposome Company Ltd., Taipei, Taiwan) was added to the cells in triplicate at 37° C. for 4 h. The cells were subsequently washed once and incubated for an additional 48 h in fresh culture medium and then pulsed for 16 h with ^3H-thymidine (1 μCi/well). Results are expressed as percent inhibition of ^3H-thymidine incorporation into cellular DNA in comparison to untreated cells.
Next, the ability of whether h6.3Fab×CD19 and h6.3Fab×EGFR BsAbs could increase the cytotoxicity of the drug-loaded nanoparticles (NPs) to antigen-positive cancer cells was investigated. Raji (CD19+) and A431 (EGFR+) cells were incubated with h6.3Fab×CD19 and h6.3Fab×EGFR, followed by the addition of graded concentrations of Doxisome (i.e., PEGylated liposomal doxorubicin).

A431 cells (EGFR+) = test: Flow cytometry: BsAb-directed PEG-liposome Texas Red / PEG-Qdot655 on cells; assay type: cell-based, human; settings: PEG-liposome Texas Red and PEG-Qdot655, 10 μg/mL BsAb
Procedure: PEG2×TAG72 or control PEG2×DNS BsAbs (10 μg/mL) were incubated with A-375 (TAG72−), MCF-7 (TAG72+), Jurkat (TAG72+) or OVCAR-3 (TAG72+) cells at 4° C. for 30 min followed by FITC-labeled goat anti-human immunoglobulin second antibody (2 μg/mL) (Jackson ImmunoResearch Laboratories, West Grove, Pa.) or FITC-labeled 4arm-PEG (2 μg/mL). Tumor-specific targeting of PEGylated compounds was also examined by staining A431 (EGFR^high), and Raji (CD19^high) cell lines with 10 μg/mL of h6.3Fab×EGFR or h6.3Fab×CD19 BsAbs in PBS containing 0.05% BSA (staining buffer) at 4° C. for 30 min. The cells were washed with cold PBS for 3 times. PEG-Qdot655 (8 nM) (Invitrogen, Grand Island, N.Y.) or PEG-liposomal Texas-Red (100 nm size, 50 μM, lipid conc.) (FormuMax Scientific, Palo Alto, Calif.) in staining buffer was added to cells for 30 min at 4° C. Raji cells (CD19+) or SKBR3 cells (HER2+) were incubated with 10 μg/ml h15-2b-knob/BU12-hole, h15-2b-knob/anti-Her2-hole, h6-3-knob/BU12-hole or h6-3-knob/anti-Her2-hole BsAbs, washed and incubated with 0.25 μg/ml FITC-labeled goat anti-human IgG or 10 nM methoxy-PEG Qdot 655 at 4° C. for 30 min. After washing with cold PBS, the surface fluorescence of 10^4 viable cells was measured by FACScaliber flow cytometer (Becton Dickinson, Mountain View, Calif., USA) then analyzed with Flowjo (Tree Star Inc., San Carlos, Calif., USA). […]

BSA = BSA (Bos taurus, UniProt P02769); test: ELISA antigen binding of BsAbs, control protein
Procedure: (§1) The anti-PEG binding specificity of BsAbs was measured by adding graded concentrations of PEG2×TAG72, PEG2×DNS, hCC49 scFv, h6.3Fab×EGFR or h6.3Fab×CD19 in 50 μL 2% skim milk to the mucin, BSA-PEG5000, NH2-PEG3k-NH2 or BSA coated plates at RT for 1 h. The plates were washed with PBS-T (PBS containing 0.05% Tween-20) three times. Rabbit anti-6×His (2 μg/mL) supplemented with HRP-conjugated goat anti-rabbit (2 μg/mL) or HRP-conjugated goat Ig anti human IgG Fab (2 μg/mL) (Jackson ImmunoResearch Laboratories, West Grove, Pa.) in 50 μL dilution buffer were added for 1 h at room temperature. The plates were washed with PBS-T (PBS containing 0.05% Tween-20) three times and with PBS two times. Bound peroxidase activity was measured by adding 150 μL/well ABTS substrate solution (BioLegend, San Diego, Calif.) for 30 min at room temperature. The absorbance (405 nm) of wells was measured in a microplate reader (Molecular Device, Menlo Park, Calif.).
Binding of the BsAbs was detected by ELISA. Microtiter plates were first coated with antigens and then PEG2×TAG72, PEG2×DNS BsAbs or hCC49 (anti-TAG72) single chain antibody was added. After the plates were extensively washed to remove unbound antibodies, the remaining bound antibodies in each well were detected with HRP-conjugated secondary antibody. […] In sum, PEG2×TAG72 anti-PEG (hE11) BsAb of example 1.2 can bind both PEG and tumor antigens. […]

A431 (EGFR+) tumor cells = test: Confocal live cell imaging of PEG-Qdot655 internalization; assay type: cell-based, human; settings: 10 μg/mL BsAb, 16 nM PEG-Qdot655
Procedure: The coverslips (30 mm) in POC chambers were coated with 10 μg/mL poly-L-lysine in PBS for 30 min at room temperature. The coverslips were washed twice with PBS and then 5×10^4 cells/chamber of A431 (EGFR+) tumor cells were seeded on the coverslips. A431 cells were incubated with 10 μg/mL of h6.3Fab×EGFR or h6.3Fab×CD19 BsAbs at 37° C. for 30 min containing 1 μg/mL of Hoechst 33342 and 100 nM of LysoTracker® Red DND-99 (Invitrogen Life Technologies Corporation, NY, USA). The cells were washed with culture medium for 2 times. Cell imaging was recorded with an Axiovert 200M Confocal Microscope (Carl Ziess Inc., Thornwood, N.Y.) after adding 16 nM of PEG-Qdot655 solution (Invitrogen Life Technologies Corporation, NY, USA).
To verify whether BsAb-targeted substance could be internalized by antigen-positive cancer cells, live cell imaging was performed by staining cells with lysosome tracker and BsAbs, followed by the addition and incubation of PEG-Qdot655.

[1] = ELISA PEG binding of h6.3 BsAbs; settings: FIG. 14A
Procedure: as §1, with “The anti-PEG binding specificity of BsAbs was measured by adding graded concentrations of PEG2×TAG72, PEG2×DNS, hCC49 scFv, h6.3Fab×EGFR or h6.3Fab×CD19 in 50 μL 2% skim milk to the mucin, BSA-PEG5000, NH2-PEG3k-NH2 or BSA coated plates at RT for 1 h.” left out
The PEG-binding kinetics of h6-3Fab×EGFR and h6.3Fab×CD19 BsAbs were verified by Microscale Thermophoresis (MST) (FIGS. 14D and 14E).

[2] = tested on: Ramos (CD19+) and A431 (EGFR+) tumor; test: In vivo optical imaging of PEG-NIR797 probes; set-up: species or system BALB/c nude mice; settings: i.v. BsAb and PEG-NIR797; 45 min, 24 and 48 hours
Procedure: The mice were then imaged at 45 min, 24 and 48 hours after injection using an IVIS spectrum optical imaging system.

MDA-MB-468 cells (EGFR+) = test: Cytotoxicity assay of Doxisome with h6.3 BsAbs (3H-thymidine); assay type: cell-based, human; settings: compared with Doxisome alone

BSA, sequence (P02769 25-607): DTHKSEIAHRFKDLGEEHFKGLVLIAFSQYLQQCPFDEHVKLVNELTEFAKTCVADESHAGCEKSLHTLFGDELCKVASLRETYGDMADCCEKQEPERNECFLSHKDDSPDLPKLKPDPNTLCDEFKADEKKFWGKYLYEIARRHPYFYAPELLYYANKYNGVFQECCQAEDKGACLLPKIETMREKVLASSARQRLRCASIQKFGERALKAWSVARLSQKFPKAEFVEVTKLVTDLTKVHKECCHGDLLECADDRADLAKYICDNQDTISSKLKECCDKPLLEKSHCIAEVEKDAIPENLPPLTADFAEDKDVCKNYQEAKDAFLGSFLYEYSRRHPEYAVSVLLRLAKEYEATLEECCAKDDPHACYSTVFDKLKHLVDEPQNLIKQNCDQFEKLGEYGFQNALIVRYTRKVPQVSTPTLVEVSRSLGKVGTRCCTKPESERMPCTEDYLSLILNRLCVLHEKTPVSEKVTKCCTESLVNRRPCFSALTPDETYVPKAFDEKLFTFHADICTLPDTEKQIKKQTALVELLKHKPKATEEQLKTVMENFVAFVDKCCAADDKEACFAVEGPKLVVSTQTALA

B1: h6.3Fab×EGFR: monovalent humanized anti-PEG h6.3 Fab fused to 11F8 anti-EGFR dsFv; SEQ ID NO 9, 10, 4, 7, 6 (protein)
chain 1: DIVMTQSPDSLAVSLGERATINCKSSQSVLYSSNQMNYLAWYQQKPGQPPKLLIYWASTRESGVPDRFSGSGSGTDFTLTISSLQAEDVAVYYCLQYLSSWTFGGGTKLEIKTYSLSSTLTLSKADYEKHKLYACEVTHQGLSSPVTKSFNRGEC
chain 2: QVQLVQSGSELKKPGASVKVSCKASGYTFKNYGMNWVRQAPGQGLEWMGWINTYTGQPIYANDFKGRFVFSLDTSVSTAYLQISSLKAEDTAVYYCARDWGPYWGQGTLVTVSSASTKGPSVFPLAPSSKSTSGGTAALGCLVKDYFPEPVTVSWNSGALTSGVHTFPAVLQSSGLYSLSSVVTVPSSSLGTQTYICNVNHKPSNTKVDKRVEPKSCDK
chain 3: VDLVTVSSASTGGGSGQLGGGGS
chain 4: QVQLQESGPGLVKPSQTLSLTCTVSGGSISSGDYYWSWIRQPPGKCLEWIGYIYYSGSTDYNPSLKSRVTMSVDTSKNQFSLKVNSVTAADTAVYYCARVSIFGVGTFDYWGQGTLVTVSSGGGGSGGGGSGGGGSEIVMTQSPATLSLSPGERATLSCRASQSVSSYLAWYQQKPGQAPRLLIYDASNRATGIPARFSGSGSGTDFTLTISSLEPEDFAVYYCHQYGSTPLTFGCGTKAEIK
chain 5: TRHHHHHH
modifications: Humanized 6.3 VL-Ck; Humanized 6.3 VH-CH1; Peptide Linker; 11F8 anti-EGFR dsFv; 6xHis Tag
- effect on cytotoxicity of Doxisome to A431 cells (A431 (EGFR+) cells): enhanced cytotoxicity of Doxisome
- directing PEGylated substance to A431 cells (A431 cells (EGFR+)): capable of directing the PEGylated substance
- binding to BSA (BSA): not to the control BSA protein
- uptake of PEG-Qdot655 into A431 cells (endocytic vesicles) (A431 (EGFR+) tumor cells): displayed red fluorescence within endocytic vesicles
- binding to NH2-PEG10,000-NH2 [1]: bound to the NH2-PEG10,000-NH2
- PEG-NIR797 signal in A431 tumors [2]: Enhanced signals of PEG-NIR797
- effect on cytotoxicity of Doxisome to MDA-MB-468 cells (MDA-MB-468 cells (EGFR+)): enhanced cytotoxicity of Doxisome
